{
  "source": "patent US20210071221",
  "proteins": {"B1": {"name": "C-terminal 6X-His tagged recombinant nucleotide dependent glycosyltransferase protein (GT-CTH) (protein)", "chain": "MGYSENFIANDWFNVEVFNKNKYTLTNQENKDVTELWLQILKGLKFPNELKETVSYSKNLKELSLKTHAEVSVCIIAKNEQDSIRKCINSIYEFSDEIIFIDTGSIDSTKKIVKEIASEKVKIFDYTWQDDFSDARNYSIQKASKEWILIIDADEYVSSDELIKLRLLIDMLDRFKFKDSLRVSCAIYQLDNVITHGQSRLFRNNNKIKYYGLIHEELRNNKGLDPIFNVESEITFFHDGYKEILRKEKCERNIRLLAKMLEKEPDNVRWAYLYCRDSFSINSNIDFEKILLPFLIKNMDESISCENILLTNYTHLILFLITKKYIIDGKSSLASKCIEVLEKMLPNSSDVTFYKFLNKQHSLYEQQFEFLKEVIQFRKNNEYDQYSQIGCNLLHYDLLISGLLFDVKSYDYSYQYFLKLDLANYFSELEIPDEYKMLINKYRENESLEHHHHHH"}},
  "key": {"[1]": {"molecular_target": "T1, Acceptor substrate 1 (SEQ ID NO: 4)", "T1 chain": "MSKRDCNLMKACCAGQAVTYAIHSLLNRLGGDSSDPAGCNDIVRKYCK"}, "[2]": {"molecular_target": "T2, Acceptor substrate 6 (SEQ ID NO: 9)", "T2 chain": "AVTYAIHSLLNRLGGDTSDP"}, "[3]": {"molecular_target": "T3, Acceptor substrate 2 (SEQ ID NO: 5)", "T3 chain": "T1 chain with S33C"}},
  "note": "Substitutions are numbered along the chain they refer to.",
  "data": [
    {"protein": "B1", "values": [
      {"measurement": "in vitro glycosylation of the acceptor peptide, LC-ESI-Q/TOF", "setting": "[1]", "result": "observed average mass of di-glycosylated product as 5503.47 Da (Expected average mass 5503.00 Da)"},
      {"measurement": "in vitro glycosylation of the acceptor peptide, MALDI-TOF", "setting": "[2]", "result": "observed (M+H)^+ of di-glycosylated product as 2424.65 Da (Expected (M+H)^+ 2424.07 Da) and observed (M+H)^+ of mono-glycosylated product as 2262.57 Da"},
      {"measurement": "in vitro glycosylation of the acceptor peptide, LC-ESI-Q/TOF", "setting": "[3]", "result": "observed monoisotopic mass of di-glycosylated product as 5515.53 Da (Expected monoisotopic mass 5515.41 Da)"}
    ]}
  ]
}
